For 1 molecule, activity results are on record in patent publication US20250277199, “NOVEL CRISPR-CAS NUCLEASES FROM METAGENOMES” (Brain Biotech AG, published 2025).

This data set concerns the target T1, BMC01 (uncultured bacterium (metagenome)).
T1 chain: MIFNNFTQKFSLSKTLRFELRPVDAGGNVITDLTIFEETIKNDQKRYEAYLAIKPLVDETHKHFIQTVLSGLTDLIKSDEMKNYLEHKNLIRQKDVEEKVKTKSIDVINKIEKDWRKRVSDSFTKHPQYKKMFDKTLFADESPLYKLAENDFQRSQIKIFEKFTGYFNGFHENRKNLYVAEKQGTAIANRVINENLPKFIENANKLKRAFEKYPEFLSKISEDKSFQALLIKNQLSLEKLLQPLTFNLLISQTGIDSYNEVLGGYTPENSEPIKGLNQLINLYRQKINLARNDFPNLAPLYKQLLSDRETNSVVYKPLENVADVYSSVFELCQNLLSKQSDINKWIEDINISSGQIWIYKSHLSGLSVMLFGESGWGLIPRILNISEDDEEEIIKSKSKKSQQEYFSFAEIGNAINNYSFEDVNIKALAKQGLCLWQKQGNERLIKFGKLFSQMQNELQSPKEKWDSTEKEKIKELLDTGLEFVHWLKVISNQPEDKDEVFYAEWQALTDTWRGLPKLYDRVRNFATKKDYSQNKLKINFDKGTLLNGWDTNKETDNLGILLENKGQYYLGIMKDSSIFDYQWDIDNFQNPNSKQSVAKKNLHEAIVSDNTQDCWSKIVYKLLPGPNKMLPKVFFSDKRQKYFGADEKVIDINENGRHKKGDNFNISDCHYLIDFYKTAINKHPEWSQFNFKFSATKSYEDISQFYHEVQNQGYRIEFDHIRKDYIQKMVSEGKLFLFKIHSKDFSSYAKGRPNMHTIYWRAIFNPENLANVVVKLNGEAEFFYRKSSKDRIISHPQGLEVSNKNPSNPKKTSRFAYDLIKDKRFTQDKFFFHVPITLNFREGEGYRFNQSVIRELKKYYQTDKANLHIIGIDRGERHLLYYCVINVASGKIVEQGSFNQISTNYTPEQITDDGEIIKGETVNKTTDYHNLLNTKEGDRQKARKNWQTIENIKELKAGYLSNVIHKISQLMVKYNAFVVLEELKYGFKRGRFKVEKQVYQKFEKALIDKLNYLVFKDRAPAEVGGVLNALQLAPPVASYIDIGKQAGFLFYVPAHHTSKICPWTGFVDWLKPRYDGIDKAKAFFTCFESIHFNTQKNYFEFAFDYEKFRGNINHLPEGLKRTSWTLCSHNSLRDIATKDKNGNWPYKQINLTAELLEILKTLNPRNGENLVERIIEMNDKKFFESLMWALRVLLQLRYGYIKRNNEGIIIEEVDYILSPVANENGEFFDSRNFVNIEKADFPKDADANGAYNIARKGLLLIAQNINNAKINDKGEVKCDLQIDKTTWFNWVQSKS
As to the kind of experiment: cell_activity; PAM not stated; E. coli depletion, 30 C. As for the experimental part:
Overnight grown pre-cultures were diluted into fresh 60 ml LB-Kanamycin (25 μg/ml) (Example 4) or LB-Kanamycin (25μg/ml)/Nourseothricin (50 μg/ml) medium (Example 5) to obtain an optical density at 600 nm (OD600) of 0.06. The inoculated medium was incubated at 30° C. on a horizontal shaker at 250 rpm until the culture reached an optical density at OD600 of 0.2. For induced BMC (NN) nuclease expression, 600 μl 20% L-(+)-arabinose (w/v) was added to the culture at a final concentration of 0.2% (v/v). The cultivation was continued until the culture reached an optical density at OD600 of 0.5. Subsequently 50 ml culture was transferred into one 50 ml conical tube and harvested by centrifugation at 4° C. for 5 min and 4000×g. Pelleted cells were resuspended in 50 ml ultrapure water (ice-cold) and centrifuged at 4° C. for 5 min and 4000×g.
This washing procedure was repeated twice. Washed cells were resuspended in 25 ml 10% (w/w) glycerin and re-centrifuged at 4° C. for 5 min and 4000×g. The pelleted cells were resuspended in 5 ml 10% (w/w) glycerin. After the final centrifugation step at 4° C. for 5 min and 4000×g, the cells were resuspended in 125 μl 10% (w/w) glycerin. Aliquots of 25 μl competent cells were stored at −80° C. until use. For the transformation procedure, aliquots of competent cells were thawed on ice and 50-100 ng plasmid DNA (CRISPR/gRNA-Ec) was added. Prepared cells were electroporated at 1800 V, 25 μF and 200 Ω in 1 mm gap size electroporation cuvettes, using the Bio-Rad Gene Pulser Xcell Electroporation System. Subsequently, 975 μL of NEB® 10-beta/Stable Outgrowth Medium was added immediately after the pulse to the transformed cells. Regeneration was done at 30° C. on a horizontal shaker at 250 rpm. Finally, 25-100 μl of the cell suspension was plated onto selective M9-Glucose agar plates supplemented with Kanamycin (25 μg/ml)/Ampicillin (100 μg/ml) (Example 4) or Kanamycin (25 μg/ml)/Ampicillin (100 μg/ml)/Nourseothrin (50 μg/ml) (Example 5). Growth of transformed E. coli cells on selective agar plates was screened for 48 h at 30° C.
As described above, each of the BMC01, BMC02, BMC03, BMC04, BMC05, BMC07, BMC08, BMC09, BMC10, BMC11, BMC12, BMC13, BMC14, or BMC15 nucleases was co-transformed into E. coli with a gRNA targeting the E. coli malQ gene to visualize a) the activity and b) the DNA targeting efficiency of the BMC nucleases.

Bounds are passed on as bounds.

B1: malQ gRNA (BMC stem-loop + 24 nt spacer) ; malQ protospacer (ssRNA ; dsDNA)
RNA: GAUUUCUACUAUUGUAGAUGUGGCGGUACGUUGAUGCAUCGCG
DNA 1: GTGGCGGTACGTTGATGCATCGCG
DNA 2: CGCGATGCATCAACGTACCGCCAC
As to B1, the activity is greater than 99.9 % colony reduction.
